This is an account of results in patent JP2019041668A.

Positions count from the first letter of the chain named.

Assay [1] has as its target グリセルアルデヒド由来AGEs含有マウス血清アルブミン (Glycer-AGEs-MSA) (mouse) (UniProt P07724). Description: SPR, Biacore T200; Glycer-AGEs-MSA amine-coupled on CM5 chip, antibody 0.001-100 nM as analyte.
Assay [2] shares this target. Description: SPR, Biacore T200; Glycer-AGEs-MSA amine-coupled on CM5 chip, antibody 0.8-800 nM as analyte.

UniProt P07724, sequence (P07724 25-608, form in doubt): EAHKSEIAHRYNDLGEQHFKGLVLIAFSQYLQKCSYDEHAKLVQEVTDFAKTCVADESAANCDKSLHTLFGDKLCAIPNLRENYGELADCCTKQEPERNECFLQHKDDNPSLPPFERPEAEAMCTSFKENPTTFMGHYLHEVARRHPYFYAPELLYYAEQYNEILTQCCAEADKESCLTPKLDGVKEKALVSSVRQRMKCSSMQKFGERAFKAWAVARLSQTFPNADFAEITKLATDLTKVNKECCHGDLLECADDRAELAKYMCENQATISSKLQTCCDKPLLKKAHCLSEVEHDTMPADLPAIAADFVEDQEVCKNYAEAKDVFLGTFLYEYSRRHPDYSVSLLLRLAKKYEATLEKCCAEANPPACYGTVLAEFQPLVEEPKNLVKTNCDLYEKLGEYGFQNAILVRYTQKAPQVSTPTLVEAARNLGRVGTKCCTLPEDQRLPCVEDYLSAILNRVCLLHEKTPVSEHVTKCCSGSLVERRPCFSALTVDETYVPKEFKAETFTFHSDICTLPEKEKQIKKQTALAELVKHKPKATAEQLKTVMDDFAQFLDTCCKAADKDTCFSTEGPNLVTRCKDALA

B1: モノクローナル抗体 6B3 (antibody, V domains shown)
VH: VKLQQSGAELVKPGASVKLSCKASGYTFTSYWMHWVKQRPGQGLEWIGEINPSNGRSNYKEKFKFKATLTVDKSSRTAYMQLSSLTSEDSAVYYCARGASWFAYWGQGTTVTVSS
VL: QIVLTQSPAIMSASPGEKVTISCSASSSVSYMYWYQQKPGSSPKPWIYRTSNLASGVPARFSGSGSGTSYSLTISSMEAEDAATYYCQQYHSYPRTFGGGTKLEIKR
The Kd is the equilibrium constant for the complex coming apart. A high value points to a looser complex. Consider B1, for which the Kd in assay [1] amounted to 47.6 nM.

B2: モノクローナル抗体 11G4 (antibody, V domains shown)
VH: B1 VH with Q5E, A15T, S84R
VL: ENVLTQSPTIMAASLGQKVTMTCSATSNVSSSYLHWYQQKSGASPKPLIHRTSDLASGVPTRFSGSGSGTSYSLTITSVEAEDDATYYCQQWSGYPFTFGAGTKLELKR
B2: the Kd in assay [2] was 376 nM.
